# In patent publication US20170281764A1 (JN BIOSCIENCES, published 2017):
# T1: F86A
# T1 construct: also called HA-tagged human TIGIT with mutation F86A, on CHO-K1 cells
# T1 single chain: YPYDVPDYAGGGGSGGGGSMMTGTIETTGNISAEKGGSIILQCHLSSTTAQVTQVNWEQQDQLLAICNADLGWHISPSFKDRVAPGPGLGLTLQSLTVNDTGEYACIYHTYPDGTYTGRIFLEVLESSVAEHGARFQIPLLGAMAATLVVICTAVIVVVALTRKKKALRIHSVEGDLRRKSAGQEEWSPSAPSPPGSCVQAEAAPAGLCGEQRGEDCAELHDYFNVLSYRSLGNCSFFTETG
# T2: L44A
# T2 construct: also called HA-tagged human TIGIT with mutation L44A, on CHO-K1 cells
# T2 single chain: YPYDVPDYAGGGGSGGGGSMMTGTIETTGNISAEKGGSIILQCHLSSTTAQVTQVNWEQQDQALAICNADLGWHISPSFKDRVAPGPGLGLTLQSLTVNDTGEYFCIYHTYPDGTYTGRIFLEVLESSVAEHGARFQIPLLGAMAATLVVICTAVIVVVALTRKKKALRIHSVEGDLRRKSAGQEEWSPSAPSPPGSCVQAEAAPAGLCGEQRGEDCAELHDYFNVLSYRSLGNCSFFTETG
# T3: T34A
# T3 construct: also called HA-tagged human TIGIT with mutation T34A, on CHO-K1 cells
# T3 single chain: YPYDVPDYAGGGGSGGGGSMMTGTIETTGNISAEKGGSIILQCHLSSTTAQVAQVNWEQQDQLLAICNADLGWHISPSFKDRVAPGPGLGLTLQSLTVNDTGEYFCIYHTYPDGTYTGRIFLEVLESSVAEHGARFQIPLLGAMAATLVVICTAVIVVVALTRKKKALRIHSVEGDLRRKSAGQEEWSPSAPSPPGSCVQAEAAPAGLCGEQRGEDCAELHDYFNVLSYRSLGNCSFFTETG
# T4: I47A
# T4 construct: also called HA-tagged human TIGIT with mutation I47A, on CHO-K1 cells
# T4 single chain: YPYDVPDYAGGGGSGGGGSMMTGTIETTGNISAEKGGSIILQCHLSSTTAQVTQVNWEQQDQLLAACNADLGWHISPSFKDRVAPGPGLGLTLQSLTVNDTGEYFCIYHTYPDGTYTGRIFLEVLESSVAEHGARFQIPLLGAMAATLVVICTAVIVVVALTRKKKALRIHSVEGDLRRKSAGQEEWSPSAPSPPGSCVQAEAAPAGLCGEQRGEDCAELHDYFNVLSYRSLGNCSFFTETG
# T5: H55A
# T5 construct: also called HA-tagged human TIGIT with mutation H55A, on CHO-K1 cells
# T5 single chain: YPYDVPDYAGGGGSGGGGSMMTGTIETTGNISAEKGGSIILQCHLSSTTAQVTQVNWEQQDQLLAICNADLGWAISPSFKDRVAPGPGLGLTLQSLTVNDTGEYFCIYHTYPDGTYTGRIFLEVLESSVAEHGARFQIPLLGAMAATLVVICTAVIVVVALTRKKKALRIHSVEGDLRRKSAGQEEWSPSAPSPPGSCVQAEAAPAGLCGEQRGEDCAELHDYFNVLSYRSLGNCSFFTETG
# T6: T96A
# T6 construct: also called HA-tagged human TIGIT with mutation T96A, on CHO-K1 cells
# T6 single chain: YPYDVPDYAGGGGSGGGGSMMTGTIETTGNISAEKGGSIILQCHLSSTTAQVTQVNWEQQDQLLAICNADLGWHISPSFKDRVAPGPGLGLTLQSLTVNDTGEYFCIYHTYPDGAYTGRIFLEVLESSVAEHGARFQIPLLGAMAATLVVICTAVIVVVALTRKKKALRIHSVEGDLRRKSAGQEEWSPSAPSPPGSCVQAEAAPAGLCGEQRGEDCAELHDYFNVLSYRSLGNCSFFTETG
# Legend:
# Test in all cases: flow cytometry titration on CHO-K1 cells transiently expressing the HA-tagged TIGIT mutant, Alexa488 anti-human IgG detection, four-parameter fit of percent of control, nM is from the concentration axis and paragraph 252
# F86A = target: T1, F86A
# Method: (§1) For flow cytometry analysis of the anti-hTIGIT antibody binding epitope, HA-tagged human TIGIT proteins with or without single amino acid mutation were transiently transfected into CHO-K1 cells. After 24 hr, transfected cells were suspended in HBSS buffer (Thermo Fisher Scientific, Cat#14175095), and incubated with HuTIG1-IgG1.AA antibody at varying concentrations in 50 μL volume. After 1 hr incubation at 4° C., cells were washed and a second incubation with 50 μL Alexa488 conjugated anti-human IgG(H+L) secondary antibody (Thermo Fisher Scientific, Cat#A-11013) was performed to detect cells bound by antibody. Cells were incubated with an anti-HA antibody (Sigma, Cat# H7411) as a positive control, and non-transfected CHO-K1 cells were used as a negative control. The cells were analyzed on an Attune NxT Cytometer (Thermo Fisher Scientific) and the data were processed using FlowJo software. For each mutant, the saturating antibody binding MFI (mean fluorescence intensity) were normalized to 100% POC (percent of control), and no primary antibody binding control MFI were normalized to 0% POC. Data were then fit to a four parameter non-linear sigmoidal curve using GraphPad Prism 7 curve fitting using following formula: Y=Bottom+(Top−Bottom)/(1+10^{((Log EC}^₅₀^{-X)*HillSlope)}).
# (§2) All of these residues co-locate to one discrete region on the front ([…] structure of the TIGIT IgV extracellular domain (FIG. 28).
# L44A = target: T2, L44A
# Method: as §1, §2
# T34A = target: T3, T34A
# Method: as §1, §2
# I47A = target: T4, I47A
# Method: as §1, §2
# H55A = target: T5, H55A
# Method: as §1, §2
# T96A = target: T6, T96A
# Method: as §1, §2
binder,measurement,setting,value
"HuTIG1-IgG1.AA (humanized IgG1/kappa form of TIG1, L234A/L235A) (antibody, Mature full chains; also called humanized TIG1) heavy: not shown light: DIQMTQSPSSLSASVGDRVTITCRASKSISKYLAWYQQKPGKAPKLLIYSGSTLQSGVPSRFSGSGSGTDFTLTISSLQPEDFATYYCQQHNEYPWTFGGGTKVEIKRTVAAPSVFIFPPSDEQLKSGTASVVCLLNNFYPREAKVQWKVDNALQSGNSQESVTEQDSKDSTYSLSSTLTLSKADYEKHKVYACEVTHQGLSSPVTKSFNRGEC",EC50,F86A,0.844 nM
same,EC50,L44A,1.23 nM
same,EC50,T34A,0.577 nM
same,EC50,I47A,1.27 nM
same,EC50,H55A,1.19 nM
same,EC50,T96A,1.36 nM
